B1: antibody 894 (clone 894) (antibody, human IgG1, kappa, V domains shown)
VH: QVQLVESGGGVVQPGKSLRLSCAASGFRFSDYGMHWVRQAPSKGLEWVAVIWHDGSNIRYADSVRGRFSISRDNSKNTLYLQMNSMRADDTAFYYCARVPFQIWSGLYFDHWGQGTLVTVSS
VL: EIVMTQSPATLSVSPGERATLSCRASQSVGNNLAWYQQRPGQAPRLLIYGASTRATGIPARFSGSGSGTEFTLTISSLQSEDFAVYYCQQYDKWPETFGQGTKVDIKR
B2: antibody 818 (clone 818) (antibody, human IgG1, kappa, V domains shown)
VH: QVTLRESGPAVVKPTETLTLTCAFSGFSLNAGRVGVSWIRQPPGQAPEWLARIDWDDDKAFRTSLKTRLSISKDSSKNQVVLTLSNMDPADTATYYCARTQVFASGGYYLYYLDHWGQGTLVTVSS
VL: DIQMTQSPSSLSASVGDRVTITCRASQTIASYVNWYQQKPGRAPSLLIYAASNLQSGVPPRFSGSGSGTDFTLTISGLQPDDFATYYCQQSYSYRALTFGGGTKVEIKR
B3: antibody 827 (clone 827) (antibody, human IgG1, kappa, V domains shown)
VH: QVQLVQSGAEVKKPGASVKVSCRVSGHTFTALSKHWMRQGPGGGLEWMGFFDPEDGDTGYAQKFQGRVTMTEDTATGTAYMELSSLTSDDTAVYYCATVAAAGNFDNWGQGTLVTVSS
VL: DIQMTQSPSSLAASVGDRVTITCRASQFISSYLHWYQQRPGKAPKLLMYAASTLQSGVPSRFSGSGSGTDFTLTISSLQPEDFATYYCQQSYTNPYTFGQGTKLEIKR
B4: antibody 831 (clone 831) (antibody, human IgG1, kappa, V domains shown)
VH: QVQLVQSGAEVKKPGASVKVSCKASANIFTYAMHWVRQAPGQRLEWMGWINVGNGQTKYSQRFQGRVTITRDTSATTAYMELSTLRSEDTAVYYCARRASQYGEVYGNYFDYWGQGTLVTVSS
VL: DIQMTQSPSTLSASVGDRLTITCRASQNIYNWLAWYQQKPGKAPKLLIYDASTLESGVPSRFSGSGSGTEFTLTISSLQPDDFATYYCQQYNSLSPTFGQGTKVEIKR
B5: antibody 880 (clone 880) (antibody, human IgG1, kappa, V domains shown)
VH: QITLKESGPTLVRPTQTLTLTCTFSGFSLSTSKLGVGWIRQPPGKALEWLALVDWDDDRRYRPSLKSRLTVTKDTSKNQVVLTMTNMDPVDTATYYCAHSAYYTSSGYYLQYFHHWGPGTLVTVSS
VL: DIQMTQSPSSLAASVGDRVTITCRASQTIASYVNWYQQKPGKAPNLLIYAASSLQSGVPSRFSGSGSGTDFTLTISSLQPEDFASYFCQQSYSFPYTFGQGTKLDIKR
B6: antibody 800 (clone 800) (antibody, human IgG1, kappa, V domains shown)
VH: QVQLVESGGAVVQPGRSLRLSCEVSGFSFSDYGMNWVRQGPGKGLEWVAVIWHDGSNKNYLDSVKGRFTVSRDNSKNTLFLQMNSLRAEDTAVYYCARTPYEFWSGYYFDFWGQGTLVTVSS
VL: AIQLTQSPSSLSASVGDRVTLTCRASQGITDSLAWYQQKPGKAPKVLLYAASRLESGVPSRFSGRGSGTDFTLTISSLQPEDFATYYCQQYSKSPATFGPGTKVEIRR

substrate: F protein of RSV strain 18537 (human respiratory syncytial virus strain 18537 (subtype B)) (UniProt P13843); test: cell-based or functional assay
Sequence (P13843 26-574): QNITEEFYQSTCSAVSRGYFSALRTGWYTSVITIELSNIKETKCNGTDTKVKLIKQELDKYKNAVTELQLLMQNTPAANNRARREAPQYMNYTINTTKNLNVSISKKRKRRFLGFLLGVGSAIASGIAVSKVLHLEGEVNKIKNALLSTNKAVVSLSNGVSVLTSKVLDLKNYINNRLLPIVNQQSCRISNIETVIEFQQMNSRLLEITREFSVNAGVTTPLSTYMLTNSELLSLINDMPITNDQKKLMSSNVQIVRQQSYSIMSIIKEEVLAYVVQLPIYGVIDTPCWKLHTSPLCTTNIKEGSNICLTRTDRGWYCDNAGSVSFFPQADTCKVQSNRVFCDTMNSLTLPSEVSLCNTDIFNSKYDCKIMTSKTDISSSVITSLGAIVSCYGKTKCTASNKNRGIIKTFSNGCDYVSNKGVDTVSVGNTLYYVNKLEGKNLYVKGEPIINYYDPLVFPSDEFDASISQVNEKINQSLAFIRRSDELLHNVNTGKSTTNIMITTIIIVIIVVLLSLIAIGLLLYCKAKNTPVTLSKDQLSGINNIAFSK

Binder	EC50, PRNT with complement, RSV 18537
B1	0.07 µg/mL
B2	0.21 µg/mL
B3	0.1 µg/mL
B4	0.72 µg/mL
B5	0.95 µg/mL

substrate: F protein of RSV strain Long (human respiratory syncytial virus strain Long (subtype A)) (UniProt P12568); test: cell-based or functional assay
Sequence (P12568 26-574): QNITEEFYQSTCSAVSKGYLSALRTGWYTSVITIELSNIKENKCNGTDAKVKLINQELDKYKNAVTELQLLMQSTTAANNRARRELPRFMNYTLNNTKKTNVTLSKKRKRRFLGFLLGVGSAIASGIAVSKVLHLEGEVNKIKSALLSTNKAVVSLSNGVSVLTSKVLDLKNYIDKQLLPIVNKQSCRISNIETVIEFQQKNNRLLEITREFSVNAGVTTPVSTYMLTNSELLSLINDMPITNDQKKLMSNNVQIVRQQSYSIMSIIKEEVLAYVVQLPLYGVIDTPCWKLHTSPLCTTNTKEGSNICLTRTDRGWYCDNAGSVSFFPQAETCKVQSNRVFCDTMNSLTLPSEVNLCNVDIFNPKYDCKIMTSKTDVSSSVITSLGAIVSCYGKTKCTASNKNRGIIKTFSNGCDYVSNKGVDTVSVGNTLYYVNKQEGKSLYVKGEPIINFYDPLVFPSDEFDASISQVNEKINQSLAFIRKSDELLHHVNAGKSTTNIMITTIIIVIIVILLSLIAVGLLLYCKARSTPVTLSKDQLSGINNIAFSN

Binder	EC50, PRNT with complement, RSV Long	EC50, PRNT with complement, RSV Long (new determination)
B6	0.15 µg/mL	
B1	0.08 µg/mL	
B2	1.86 µg/mL	0.15 µg/mL
B3	0.16 µg/mL	
B4	0.08 µg/mL	
B5	0.38 µg/mL	

substrate: F protein of RSV strain B1 (human respiratory syncytial virus strain B1 (subtype B)) (UniProt O36634); test: cell-based or functional assay
Sequence (O36634 26-574): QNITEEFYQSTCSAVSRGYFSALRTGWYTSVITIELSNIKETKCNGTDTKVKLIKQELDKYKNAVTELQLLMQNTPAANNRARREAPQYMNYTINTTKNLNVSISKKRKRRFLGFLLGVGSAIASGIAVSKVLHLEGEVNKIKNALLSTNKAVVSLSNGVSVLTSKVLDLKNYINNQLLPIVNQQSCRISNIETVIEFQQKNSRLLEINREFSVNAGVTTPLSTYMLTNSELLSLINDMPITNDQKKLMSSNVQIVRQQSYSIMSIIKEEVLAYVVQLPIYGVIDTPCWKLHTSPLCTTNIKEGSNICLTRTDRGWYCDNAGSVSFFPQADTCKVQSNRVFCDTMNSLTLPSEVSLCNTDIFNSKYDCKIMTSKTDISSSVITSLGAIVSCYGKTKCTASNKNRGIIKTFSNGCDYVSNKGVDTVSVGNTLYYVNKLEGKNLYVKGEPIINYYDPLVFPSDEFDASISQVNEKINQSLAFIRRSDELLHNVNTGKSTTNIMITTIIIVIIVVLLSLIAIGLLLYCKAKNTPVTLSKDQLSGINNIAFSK

Binder	EC50, PRNT with complement, RSV B1
B6	0.16 µg/mL
B4	1.66 µg/mL
B5	0.4 µg/mL
